T1: SAMP1 with deletion of the C-terminal diglycine residues (ΔGG), D4GUF6
T1 chain: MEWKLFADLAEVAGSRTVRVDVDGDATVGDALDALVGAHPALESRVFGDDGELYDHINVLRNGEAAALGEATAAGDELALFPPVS

T2: ubiquitin-like SAMP1, D4GUF6
T2 chain: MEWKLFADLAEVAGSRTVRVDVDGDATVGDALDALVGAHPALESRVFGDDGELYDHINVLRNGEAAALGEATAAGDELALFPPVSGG

B1: UbaA of Hfx. volcanii (protein)
chain: MTLSLDATQLDRYSRHIIMDEVGPEGQGRLLSSRVVVVGAGGLGAPAIQYLAAVGVGELVVVDDDVVERSNLQRQVVHCDDDVGTPKAESAAAFVRGLNPDVSVEPVEARVDKSNVHEVVAGSDVVVDASDNFPTRYLLNDVCRFEGIPLVHGAIYKFEGQATTLVPDGPCYRCLFPEAPEPGTVPDCATTGVLGVLPGTVGCIQATEAMKLLLDEGEALDGRLLFYDAMDMTFETVPYRTNPDCPVCGEGGVDSIEDIDYVESCAISLD
B2: HvPPA with an N-terminal poly-histidine tag (His6-HvPPA) linked with a thrombin-cleavage site (enzyme)
chain: MVNLWEDMETGPNAPDEIYAVVECLKGERNKYEYDKDIPGVVLDRVLHSNVHYPSDYGFIPQTYYDDEDPFDVLVLVEDQTFPGCVIEARPVALMKMDDDGEQDDKVIAVPVEDPRYDHIEDLDDIPQQTLDEIDEFFATYKNLEAGKEVETLGWEDKQAAKDAIEHAMDLYEENFA
notes: Expressed in Hfx. volcanii H26-pJAM2920; Purified by Ni2+ IMAC and SEC as homo-hexamers (~134 kDa) and homo-trimers (~64 kDa); also called HVO_0729; Haloferax volcanii inorganic pyrophosphatase; not shown: N-terminal His6 tag and thrombin-cleavage site from vector pJAM503

Columns and labels:
[1] = target: T1, SAMP1 with deletion of the C-terminal …
[2] = target: T2, ubiquitin-like SAMP1, D4GUF6
[3] = target: the molecule itself; test: size exclusion chromatography (Superdex 200); hexamers of ~134 kDa and trimers of ~64 kDa
Experimental: HvPPA (HVO_0729, UniProt: D4GT97) was expressed with an N-terminal poly-histidine tag (His₆) in Hfx. volcanii H26-pJAM2920 (Table 1). Hfx. volcanii cells were grown to stationary phase (OD₆₀₀ of 3-3.5) (4×1-liter cultures in 2.8-liter Fernbach flasks) and harvested by centrifugation (10-15 min at 9,200× g and 25° C.). Cell pellets were resuspended at 5 ml per g wet weight cells in Tris-salt buffer (20 mM Tris-HCl, pH 7.5, 2 M NaCl and 2.5 mM MgCl₂) supplemented with 40 mM imidazole and 1 mini-tablet protease inhibitor cocktail (Roche product no. 05892791001) per 10 ml buffer. Cells were lysed by passing through a French Press (three times at 20,000 psi). Whole cell lysate was clarified by centrifugation (twice for 30 min at 9,200× g and 4° C.) and sequential filtration using 0.8 μm and 0.2 μm cellulose acetate filters (Thermo Scientific Nalgene). Clarified cell lysate was applied to a HisTrap HP column (5 ml, 17-5248-01, GE Healthcare) pre-equilibrated and washed in 100 ml of Tris-salt buffer with 40 mM imidazole. Fractions containing HvPPA were eluted in Tris-salt buffer with a 25 ml gradient from 40 mM to 500 mM imidazole. […] Purity of HvPPA was assessed by Coomassie Blue stained SDS-PAGE gels and PPi activity assay. […]

Protein	Pi detected by colorimetric (malachite green) assay in the HvPPA-coupled adenylation assay [1]	Pi detected by colorimetric (malachite green) assay in the HvPPA-coupled adenylation assay [2]	binding result [3]
B1	Deletion of the C-terminal diglycine residues of SAMP1 (ΔGG) were found to significantly reduce the level of Pi detected by this assay	Significant levels of Pi were detected when UbaA and HvPPA were coupled with ATP and SAMP1 in the reaction	–
B2	–	–	binds

From patent publication US20180371433A1 (UNIVERSITY OF FLORIDA RESEARCH FOUNDATION, published 2018)
